Experimental data as given in paper PMC8998655, “Effect of Betaine and Arginine on Interaction of αB-Crystallin with Glycogen Phosphorylase b” (International Journal of Molecular Sciences, 2022).

How the values were obtained:
[1] = biological target: the molecule itself; experiment: AUC; sedimentation velocity at 48 °C, Phb 0.4 mg/mL alone (also with 500 mM betaine), 0.03 M Hepes pH 6.8, ionic strength 0.15 M, 48,000 rpm
[2] = biological target: the molecule itself; experiment: AUC + other: dynamic light scattering; sedimentation velocity at 48 °C, αB-Cr 0.2 mg/mL, 0.03 M Hepes pH 6.8, ionic strength 0.15 M, no additive; mass by the Svedberg equation with s from AUC and D from DLS; major peak 20.4 S
[3] = biological target: the molecule itself; experiment: AUC + other: dynamic light scattering; sedimentation velocity at 48 °C, αB-Cr 0.2 mg/mL, 0.03 M Hepes pH 6.8, ionic strength 0.15 M, with 300 mM betaine; mass by the Svedberg equation with s from AUC and D from DLS; major peak 16.5 S

B1: glycogen phosphorylase b (enzyme, rabbit, UniProt P00489 1-843, looked up)
chain: MSRPLSDQEKRKQISVRGLAGVENVTELKKNFNRHLHFTLVKDRNVATPRDYYFALAHTVRDHLVGRWIRTQQHYYEKDPKRIYYLSLEFYMGRTLQNTMVNLALENACDEATYQLGLDMEELEEIEEDAGLGNGGLGRLAACFLDSMATLGLAAYGYGIRYEFGIFNQKICGGWQMEEADDWLRYGNPWEKARPEFTLPVHFYGRVEHTSQGAKWVDTQVVLAMPYDTPVPGYRNNVVNTMRLWSAKAPNDFNLKDFNVGGYIQAVLDRNLAENISRVLYPNDNFFEGKELRLKQEYFVVAATLQDIIRRFKSSKFGCRDPVRTNFDAFPDKVAIQLNDTHPSLAIPELMRVLVDLERLDWDKAWEVTVKTCAYTNHTVLPEALERWPVHLLETLLPRHLQIIYEINQRFLNRVAAAFPGDVDRLRRMSLVEEGAVKRINMAHLCIAGSHAVNGVARIHSEILKKTIFKDFYELEPHKFQNKTNGITPRRWLVLCNPGLAEIIAERIGEEYISDLDQLRKLLSYVDDEAFIRDVAKVKQENKLKFAAYLEREYKVHINPNSLFDVQVKRIHEYKRQLLNCLHVITLYNRIKKEPNKFVVPRTVMIGGKAAPGYHMAKMIIKLITAIGDVVNHDPVVGDRLRVIFLENYRVSLAEKVIPAADLSEQISTAGTEASGTGNMKFMLNGALTIGTMDGANVEMAEEAGEENFFIFGMRVEDVDRLDQRGYNAQEYYDRIPELRQIIEQLSSGFFSPKQPDLFKDIVNMLMHHDRFKVFADYEEYVKCQERVSALYKNPREWTRMVIRNIATSGKFSSDRTIAQYAREIWGVEPSRQRLPAPDEKIP
notes: glycogen phosphorylase b (muscle form), rabbit skeletal muscle; In all experiments the protein was heated at 48 °C, so it was partly unfolded (unfolded monomer and partly unfolded dimer); also called Phb; source: purified from rabbit skeletal muscle
B1 was tested, and the “stoichiometry N” value [1] was 2.

B2: αB-crystallin (natural protein, human, UniProt P02511 1-175, looked up)
chain: MDIAIHHPWIRRPFFPFHSPSRLFDQFFGEHLLESDLFPTSTSLSPFYLRPPSFLRAPSWFDTGLSEMRLEKDRFSVNLDVKHFSPEELKVKVLGDVIEVHGKHEERQDEHGFISREFHRKYRIPADVDPLTITSSLSSDGVLTVNGPRKQVSGPERTIPITREEKPAVTAAPKK
notes: αB-crystallin (HspB5), human; Polydisperse oligomer (about 40-mer at 48 °C without additives, about 24-mer with 300 mM betaine); also called HspB5; source: E. coli (pET23 vector), purified (salting out with ammonium sulfate, gel filtration)
With B2 the “stoichiometry N” value [2] was 40 and the “stoichiometry N” value [3] was roughly 24.
